According to patent publication US20080219971A1 (VACCINEX, published 2008):

Columns and labels:
[1] = target: T1, Human CD100 (human, UniProt Q92854 22-734, limits assumed); assay: affinity testing, method and unit not printed in Example 10 (nM as in Table 3); mutant value, before the parentheses
T1 construct: also called SEMA4D; Hu CD100
T1 sequence (looked up): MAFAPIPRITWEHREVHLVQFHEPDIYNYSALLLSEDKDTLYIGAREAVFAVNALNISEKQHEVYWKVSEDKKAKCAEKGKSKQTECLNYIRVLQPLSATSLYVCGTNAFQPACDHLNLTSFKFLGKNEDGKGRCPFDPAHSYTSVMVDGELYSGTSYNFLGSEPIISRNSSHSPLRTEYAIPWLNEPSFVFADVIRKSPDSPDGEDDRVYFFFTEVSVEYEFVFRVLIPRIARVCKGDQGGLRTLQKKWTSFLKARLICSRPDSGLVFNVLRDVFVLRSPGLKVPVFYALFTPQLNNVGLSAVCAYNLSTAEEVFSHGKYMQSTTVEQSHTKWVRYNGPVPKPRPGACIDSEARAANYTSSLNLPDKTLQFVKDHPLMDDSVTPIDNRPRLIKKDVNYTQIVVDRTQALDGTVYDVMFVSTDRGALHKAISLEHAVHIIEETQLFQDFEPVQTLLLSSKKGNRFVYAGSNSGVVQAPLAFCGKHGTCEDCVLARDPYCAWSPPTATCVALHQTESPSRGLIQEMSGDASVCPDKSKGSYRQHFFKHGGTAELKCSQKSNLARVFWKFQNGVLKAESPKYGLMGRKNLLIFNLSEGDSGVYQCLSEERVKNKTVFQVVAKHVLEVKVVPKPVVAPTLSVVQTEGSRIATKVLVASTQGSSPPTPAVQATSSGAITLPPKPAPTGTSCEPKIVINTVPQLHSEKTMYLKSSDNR

[2] = target: T1, Human CD100; assay: affinity testing, method and unit not printed in Example 10 (nM as in Table 3)
[3] = target: T1, Human CD100; assay: ELISA method of Friguet et al.; column head 'Affinity (nM) IC50 ELISA'; antigen not named
Protocol: Antibody affinity was measured according to the ELISA method described in Friguet et al. (1985) J Immunol Methods 77(2):305-19.

[4] = target: T2, human CD100-Fc (human, UniProt Q92854 22-734, limits assumed); assay: competition ELISA on CD100-Fc: BD16 titrated against 5 ng/ml MAb 301, bound MAb 301 detected with anti-human Kappa HRP
T2 construct: also called CD100-Fc antigen
T2 sequence (looked up): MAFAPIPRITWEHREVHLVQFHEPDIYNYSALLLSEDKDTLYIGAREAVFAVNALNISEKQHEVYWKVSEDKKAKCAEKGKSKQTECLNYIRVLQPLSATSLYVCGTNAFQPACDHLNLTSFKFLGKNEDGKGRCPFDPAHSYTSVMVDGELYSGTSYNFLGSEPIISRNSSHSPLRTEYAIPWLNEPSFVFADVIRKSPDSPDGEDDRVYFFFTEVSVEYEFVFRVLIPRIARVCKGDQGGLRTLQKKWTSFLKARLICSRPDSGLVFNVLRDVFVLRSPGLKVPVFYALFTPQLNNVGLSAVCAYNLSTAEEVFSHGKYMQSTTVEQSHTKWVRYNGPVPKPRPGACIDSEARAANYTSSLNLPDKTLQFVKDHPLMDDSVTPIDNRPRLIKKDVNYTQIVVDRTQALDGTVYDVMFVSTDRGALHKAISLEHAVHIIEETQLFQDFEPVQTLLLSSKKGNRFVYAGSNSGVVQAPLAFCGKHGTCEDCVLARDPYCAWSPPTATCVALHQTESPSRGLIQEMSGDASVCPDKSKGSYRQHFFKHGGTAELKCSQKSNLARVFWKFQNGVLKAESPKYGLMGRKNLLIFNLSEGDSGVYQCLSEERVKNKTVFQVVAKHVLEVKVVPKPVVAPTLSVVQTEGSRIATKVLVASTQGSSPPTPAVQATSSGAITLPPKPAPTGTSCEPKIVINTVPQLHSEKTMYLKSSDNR
Protocol: (§1) Competition ELISA assays were then performed. The ELISA plate was coated with CD100-Fc antigen, and BD16 or BB18 were allowed to bind individually to CD100. […] The cells were washed and antibody activity detected. Bound chimeric or human MAb was detected using anti-human Kappa HRP.

[5] = target: T2, human CD100-Fc; assay: competition ELISA on CD100-Fc: BD16 titrated against 5 ng/ml MAb 657, bound MAb 657 detected with anti-human Kappa HRP
Protocol: as §1

[6] = target: T3, BSA (UniProt P02769 25-607); assay: ELISA
T3 construct: Negative control antigen
T3 sequence (P02769 25-607 limits assumed): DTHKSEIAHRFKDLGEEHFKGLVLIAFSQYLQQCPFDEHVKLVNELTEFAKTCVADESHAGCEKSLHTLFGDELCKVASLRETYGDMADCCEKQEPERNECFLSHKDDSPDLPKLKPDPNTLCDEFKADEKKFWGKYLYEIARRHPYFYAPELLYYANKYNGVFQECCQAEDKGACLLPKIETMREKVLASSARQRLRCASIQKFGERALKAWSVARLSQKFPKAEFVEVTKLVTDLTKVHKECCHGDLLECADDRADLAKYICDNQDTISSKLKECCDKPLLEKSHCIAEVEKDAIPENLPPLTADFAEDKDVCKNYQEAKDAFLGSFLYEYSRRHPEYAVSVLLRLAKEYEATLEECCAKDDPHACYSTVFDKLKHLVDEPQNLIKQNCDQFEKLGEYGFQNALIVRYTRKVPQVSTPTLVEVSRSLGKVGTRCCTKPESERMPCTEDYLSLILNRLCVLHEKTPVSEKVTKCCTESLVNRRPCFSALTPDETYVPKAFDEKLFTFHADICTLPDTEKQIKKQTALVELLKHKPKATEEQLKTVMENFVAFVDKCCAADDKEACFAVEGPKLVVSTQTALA

[7] = target: T4, human serum albumin (human, UniProt P02768 25-609); assay: ELISA
T4 construct: Negative control antigen
T4 sequence (P02768 25-609 limits assumed): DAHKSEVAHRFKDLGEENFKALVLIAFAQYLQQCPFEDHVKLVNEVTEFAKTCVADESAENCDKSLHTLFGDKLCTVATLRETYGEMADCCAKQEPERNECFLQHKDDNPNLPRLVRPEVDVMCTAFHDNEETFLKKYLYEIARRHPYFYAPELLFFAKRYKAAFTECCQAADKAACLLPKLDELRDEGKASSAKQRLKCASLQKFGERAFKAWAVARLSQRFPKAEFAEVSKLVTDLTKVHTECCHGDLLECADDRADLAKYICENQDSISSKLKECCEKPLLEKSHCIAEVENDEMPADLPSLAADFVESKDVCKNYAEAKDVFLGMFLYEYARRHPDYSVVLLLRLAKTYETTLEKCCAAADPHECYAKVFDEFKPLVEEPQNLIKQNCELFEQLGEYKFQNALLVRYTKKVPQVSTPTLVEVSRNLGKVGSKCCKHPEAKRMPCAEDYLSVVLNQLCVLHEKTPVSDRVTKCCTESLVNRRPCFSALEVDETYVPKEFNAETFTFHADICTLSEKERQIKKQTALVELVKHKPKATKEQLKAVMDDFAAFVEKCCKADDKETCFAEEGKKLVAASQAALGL

[8] = target: T5, streptavidin (UniProt P22629 37-163, limits assumed); assay: ELISA
T5 construct: Negative control antigen
T5 sequence (P22629 37-163 limits assumed): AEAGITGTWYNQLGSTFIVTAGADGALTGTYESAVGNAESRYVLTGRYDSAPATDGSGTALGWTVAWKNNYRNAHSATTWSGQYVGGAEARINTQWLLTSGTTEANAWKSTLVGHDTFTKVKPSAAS

[9] = target: T2, human CD100-Fc; assay: ELISA on CD100-Fc antigen
[10] = target: T6, huErb2-Fc (human, UniProt P04626 23-652); assay: ELISA on huErb2-Fc antigen (Neg Ctrl)
T6 construct: Negative control antigen; also called huErb2-Fc antigen

B1: MAb 2220 (antibody, V domains shown)
VH: QVQLVQSGAEVKKPGSSVKVSCKASGYTFTDYYMDWVRQAPGQGLEWMGRVNPYHGGATFNQKFKGRVTITADKSTSTAYMELSSLRSEDTAVYYCAREENSYDGYYGMDYWGQGTLVTVSS
VL: DIVMTQSPLSLPVSPGEPATINCKSSQSLFNSGNQKNYLAWYLQKPGQPPKLLIYGASTRESGVPDRFSGSGSGTDFTLTISSLQAEDVAVYYCQNDHTYPYTFGQGTKLEIK
notes: H1651 mutant VH combined with L284; also called H1651 Y60F with L284
Kd [1]: 0.04 nM

B2: MAb 2207 (antibody, V domains shown)
VH: QVQLVQSGAEVKKPGSSVKVSCKASGYTFTDYYMDWVRQAPGQGLEWMGRVNPYHGYATYNQKFKGRVTITADKSTSTAYMELSSLRSEDTAVYYCAREENSYDGYYGMDYWGQGTLVTVSS
VL: DIVMTQSPLSLPVSPGEPATINCKSSQSLFNSGNQKNYLAWYLQKPGQPPKLLIYGASTRESGVPDRFSGSGSGTDFTLTISSLQAEDVAVYYCQNDHTYPYTFGQGTKLEIK
notes: H1651 mutant VH combined with L284; also called H1651 G57Y with L284
Kd [2]: 0.06 nM

B3: MAb 2218 (antibody, V domains shown)
VH: QVQLVQSGAEVKKPGSSVKVSCKASGYTFTDYYMDWVRQAPGQGLEWMGRVNPYHGGAVYNQKFKGRVTITADKSTSTAYMELSSLRSEDTAVYYCAREENSYDGYYGMDYWGQGTLVTVSS
VL: DIVMTQSPLSLPVSPGEPATINCKSSQSLFNSGNQKNYLAWYLQKPGQPPKLLIYGASTRESGVPDRFSGSGSGTDFTLTISSLQAEDVAVYYCQNDHTYPYTFGQGTKLEIK
notes: H1651 mutant VH combined with L284; also called H1651 T59V with L284
Kd [2]: 0.08 nM

B4: MAb 2206 (antibody, V domains shown)
VH: QVQLVQSGAEVKKPGSSVKVSCKASGYTFTDYYMDWVRQAPGQGLEWMGRVNPYHGWATYNQKFKGRVTITADKSTSTAYMELSSLRSEDTAVYYCAREENSYDGYYGMDYWGQGTLVTVSS
VL: DIVMTQSPLSLPVSPGEPATINCKSSQSLFNSGNQKNYLAWYLQKPGQPPKLLIYGASTRESGVPDRFSGSGSGTDFTLTISSLQAEDVAVYYCQNDHTYPYTFGQGTKLEIK
notes: H1651 mutant VH combined with L284; also called H1651 G57W with L284
Kd [2]: 0.09 nM

B5: MAb 2219 (antibody, V domains shown)
VH: QVQLVQSGAEVKKPGSSVKVSCKASGYTFTDYYMDWVRQAPGQGLEWMGRVNPYHGGAWYNQKFKGRVTITADKSTSTAYMELSSLRSEDTAVYYCAREENSYDGYYGMDYWGQGTLVTVSS
VL: DIVMTQSPLSLPVSPGEPATINCKSSQSLFNSGNQKNYLAWYLQKPGQPPKLLIYGASTRESGVPDRFSGSGSGTDFTLTISSLQAEDVAVYYCQNDHTYPYTFGQGTKLEIK
notes: H1651 mutant VH combined with L284; also called H1651 T59W with L284
Kd [2]: 0.08 nM

B6: BD16 (antibody, V domains shown)
VH: EVQLQQSGPELVKPGASVKMSCKASGYTFTDYYMDWVKQSHGESFEWIGRVNPYHGGATYNQKFKGKATLTVDKSSRTAYMELNSLTYEDSAVYYCAREENSYDGYYGMDYWGQGTTVTVSS
VL: DIVLTQSPSSLSVSAGEKVTMDCKSSQSLFNSGNQKNYLAWYHQKPGQPPKLLIYGASTRESGVPDRFTGSGSGTDFTLTISSVQAEDLAVYYCQNDHTYPYTFGGGTKLEIK
notes: Murine hybridoma anti-human CD100 antibody; also called mouse BD16; BD16 mouse MAb
Kd [3]: 0.13 nM
IC50 (read off the curve) [4]: ~20 ng/mL
IC50 (read off the curve) [5]: ~30 ng/mL

B7: MAb 301 (antibody, human IgG1, V domains shown)
VH: EVQLQQSGPELVKPGASVKMSCKASGYTFTDYYMDWVKQSHGESFEWIGRVNPYHGGATYNQKFKGKATLTVDKSSRTAYMELNSLTYEDSAVYYCAREENSYDGYYGMDYWGQGTTVTVSS
VL: DIVLTQSPSSLSVSAGEKVTMDCKSSQSLFNSGNQKNYLAWYHQKPGQPPKLLIYGASTRESGVPDRFTGSGSGTDFTLTISSVQAEDLAVYYCQNDHTYPYTFGGGTKLEIK
notes: Chimeric, human IgG1, human kappa constant domain; also called chimeric BD16; H387/L124
binding result [6]: no binding
binding result [7]: no binding
binding result [8]: no binding
EC50 (read off the curve) [9]: ~20 ng/mL
binding result [10]: no binding (tested: 500 ng/ml)
